The test system of the series is MS2 coat protein. The series can be described thus: apparent KD of MS2 coat protein; higher = weaker reporter binding. The settings on record: Eterna round: R107. Here is the method: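 RNA-MaP round R107: designed RNA switches with theophylline, tryptophan, arginine or FMN aptamers are transcribed on-chip within common flanks. They are titrated with SNAP-549-labelled MS2 coat protein in RNA-MaP buffer (100 mM Tris pH 7.5, 80 mM KCl, 4 mM MgCl2), without ligand or with the indicated ligand. Median apparent KD per design.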

[1] abbreviates: input ligand: theophylline 20 uM.
The mark [2] stands for this setting: input ligand: theophylline 2 mM.
The mark [3] stands for this setting: input ligand: tryptophan 2.4 mM.

In the case of “AGUCUUAGUGGAAGGAGCGCAGUCAUAACAUGAGGAUCACCCAUGUCGAGGUGAGGGUCAUUGCAGGUAGGUCGCCAUAAUAGGA [#16 Same State - Arginine B]”, the “apparent KD of MS2 coat protein” value reads like this: (input ligand: arginine 13.2 mM) 19.3 nM; (input ligand: none) 156 nM; under setting [1], 355 nM; under setting [2], 322 nM; under setting [3], 369 nM.
As to “AGUCUUGUGGGAAGGAGCGCAUACUUCACAUGAGGAUCACCCAUGUCAAGACGUGAGUCAGUGCAGGUAGGUCGCCUAACUAAGA [Same State - Arginine B (Freestyle 15)]”, the “apparent KD of MS2 coat protein” value reads like this: (input ligand: arginine 13.2 mM) 53.1 nM; (input ligand: none) 30.3 nM; under setting [1], 37.4 nM; under setting [2], 35.8 nM; under setting [3], 28.2 nM.
With “AGUUGACAAAAGUCAGCAACAUGAUCCGAAGGAGCGGGCGAAAGCCCAGGUAGGUCGCGGACAUGAGGAUCACCCAUGUCUCCUU [ArgAX 3 #OpenEnded #Sliding]”, the “apparent KD of MS2 coat protein” value (input ligand: arginine 13.2 mM) is 46.6 nM; the “apparent KD of MS2 coat protein” value (input ligand: none) is 74.3 nM; the “apparent KD of MS2 coat protein” value under setting [1] was 70.6 nM; the “apparent KD of MS2 coat protein” value under setting [2] was 100 nM; the “apparent KD of MS2 coat protein” value under setting [3] stood at 63.9 nM.
“AUAAAUAUAACCGAUACCAGCCUUAUACAUGAGGAUCACCCAUGUUAUGCUUCCUUUUUUGGCCCUUGGCAGCGGAAAUGGGUAA [AstrosSSTheB#2]”: the “apparent KD of MS2 coat protein” value (input ligand: arginine 13.2 mM) came to 47.6 nM, the “apparent KD of MS2 coat protein” value under setting [1] was found to be 65.8 nM and the “apparent KD of MS2 coat protein” value under setting [3] was found to be 65.3 nM.
For the sequence “AUAACACAUGAGGAUCACCCAUGUAAGGAUACCAGUUUCUGAUUAAACCCUUGGCAGCCUAGAGAUAGUCAUGUAAUAACGGCGA [theeternabot_sameState_MS2_Theo_A_19]”, the “apparent KD of MS2 coat protein” value (input ligand: arginine 13.2 mM) came out at 12.4 nM, the “apparent KD of MS2 coat protein” value under setting [1] was found to be 18.1 nM and the “apparent KD of MS2 coat protein” value under setting [3] stood at 12.2 nM.
As to “AUAACAUGAGGAUCACCCAUGUAAGCUGAAGGAGCGCUGGAAACAGCAGGUAGGUCGCAGCGGCGACCUUCAUGGGUAAGGUCGC [(M1)-(M2)-(Arg1)-(Arg2)-(A)'-(M)'-(A)''_Design4]”, the “apparent KD of MS2 coat protein” value reads like this: (input ligand: arginine 13.2 mM) 33.1 nM; (input ligand: none) 32.8 nM; under setting [1], 41.2 nM; under setting [2], 40.5 nM; under setting [3], 30.4 nM.
As for “AUAACAUGAGGAUCACCCAUGUAAGGUGAUACCAGACGAAGUAAAGUCCCUUGGCAGCACAAGUAAAGUUACGAAUAUUGAUAGA [JR_SSTheophyA_Sub004]”, the “apparent KD of MS2 coat protein” value by setting is: (input ligand: arginine 13.2 mM) 62.2 nM; under setting [1], 416 nM; under setting [3], 634 nM.
On to “AUAACUGUAAUAAACCGCAGGCUAGUGGAAGGAGCGCGGAAUAACGCAGGUAGGUCGCCACAAACAUGAGGAUCACCCAUGUGGC [SSAA NP+V+V2 #6]”, for which the “apparent KD of MS2 coat protein” value is 16 nM (input ligand: arginine 13.2 mM); 16 nM (input ligand: none); 21.6 nM under setting [1]; 20.7 nM under setting [2]; 19.6 nM under setting [3].
Turning to “AUAAGUAAUGUCUCGUGUAUUAUUACAGAUACCAGACUAUCCUAUGUCCCUUGGCAGCUGGAUUACAUGAGGAUCACCCAUGUGG [#11 Exclusion-TheophyllineA]”, the “apparent KD of MS2 coat protein” value runs as follows: (input ligand: arginine 13.2 mM) 37.6 nM; under setting [1], 49.5 nM; under setting [3], 42 nM.
“AUAAGUAAUGUUACGUGUUUUAUUACAGAUACCAGACUAUACGUUGUCCCUUGGCAGCUGAAUUACAUGAGGAUCACCCAUGUUG [JR_ExcTheophyA_Sub004]”: the “apparent KD of MS2 coat protein” value came to 15.9 nM (input ligand: arginine 13.2 mM), 18.4 nM under setting [1] and 15.1 nM under setting [3].
In the case of “AUAUAUACAUGAGGAUCACCCAUGUUAUUUCGAGGACCGGUACGGCCGCCACUCGAUAGAGUAGAAGUAUUUUGGGAUAGUUGAU [JR_SSTryptoA_Sub015]”, the “apparent KD of MS2 coat protein” value was found to be 19.7 nM (input ligand: arginine 13.2 mM); 18.5 nM (input ligand: none); 30.7 nM under setting [1]; 23.6 nM under setting [2]; 15.6 nM under setting [3].
As for “AUAUAUGACAGAAGGAGCGCCAUGAACACACAUGAGGAUCACCCAUGUUUUUUUUGUGUUUGGCAGGUAGGUCGCUGACAUGAAA [Same State Arginine B 3]”, the “apparent KD of MS2 coat protein” value reads like this: (input ligand: arginine 13.2 mM) 9.45 nM; (input ligand: none) 8.71 nM; under setting [1], 17.7 nM; under setting [2], 11.6 nM; under setting [3], 9.98 nM.
As to “AUAUGAUCAUAGGAUACCAGAAAUGGUAUUCCUUUAUUUCUUACAUGAGGAUCACCCAUGUUCCCUUGGCAGCUUAUGAUCAUAU [ETHB #4]”, the “apparent KD of MS2 coat protein” value by setting is: (input ligand: arginine 13.2 mM) 79.3 nM; under setting [1], 169 nM; under setting [3], 107 nM.
In the case of “AUCAGUAGAACUGAUACCAGUCAAAGGCUUUGACCUCAUAACAUGAGGAUCACCCAUGUUGACCCUUGGCAGCAGUAGGCAAGGG [Theo B Ex t4]”, the “apparent KD of MS2 coat protein” value is, setting by setting: (input ligand: arginine 13.2 mM) 22.5 nM; under setting [1], 28.9 nM; under setting [3], 25.4 nM.
On to “AUCAUGGCCAUCGAUACCAGCUACAUGAGGAUCACCCAUGUAAACGGCGCGGUGAGAUGUAGCCCUUGGCAGCGAAGGGUCAAGG [Beonrexe]”, for which the “apparent KD of MS2 coat protein” value by setting is: (input ligand: arginine 13.2 mM) 16.4 nM; (input ligand: none) 16.8 nM; under setting [1], 49.2 nM; under setting [2], 64 nM; under setting [3], 19.6 nM.
Take “AUCUACGUGGGUGAUACCAGCUGGUUAGUACACAUGAGGAUCACCCAUGUGCAGGCAGGCAGCCCUUGGCAGCACCGCAGUGGCU [theeternabot_sameState_MS2_Theo_B_36]”: the “apparent KD of MS2 coat protein” value is, setting by setting: (input ligand: arginine 13.2 mM) 42.8 nM; under setting [1], 221 nM; under setting [3], 60.9 nM.
Consider “AUCUAUAGAGCGGCCGCCACUGAAUACAUGAGGAUCACCCAUGUAAUGUUAAGGUGGUCCUAGCUCAGGACCGGGCUCUAUAGAU [Tryp B Ex t4]”, for which the “apparent KD of MS2 coat protein” value runs as follows: (input ligand: arginine 13.2 mM) 30 nM; under setting [1], 60.6 nM; under setting [2], 53.3 nM.
Consider “AUCUGUAUGUUUUCGUGUUUUAUUACAGAUACCAGACUAUACGUUGUCCCUUGGCAGCUGGAUGACAUGAGGAUCACCCAUGUUG [#27 Exclusion-TheophyllineA]”, for which the “apparent KD of MS2 coat protein” value is, setting by setting: (input ligand: arginine 13.2 mM) 24 nM; under setting [1], 41.2 nM; under setting [3], 31.8 nM.

The record behind these values is the supplement of paper PMC9170038.
